The target in test [1] is T1, human FcRn/b2M (human, UniProt P61769 21-119, biotinylated).
T1 construct: bought recombinant biotinylated protein (ACRO FCM-H82W4 or Immunitrack ITF01); also called hFcRn; hFcRn/hb2M
The test can be described thus: SPR pH 6.0.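 Further: surface plasmon resonance kinetics at 25 °C, diluted periplasmic extracts injected over immobilized ligand surfaces, 120 s association then 600–3600 s dissociation, running buffer containing 150 mM NaCl.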
Method: (§1) All kinetic measurements have been performed on ProteOn XPR36 (BioRad Laboratories, Inc.), MASS-2 (Sierra sensors, Gmbh) or SPR-32 (Bruker Corporation). […] The phytip purified periplasmic extracts were diluted 1:10 in running buffer (CPA+150 mM NaCl+0.005% Tw20 at pH 5.5, pH 6.0 or pH 7.4) and injected over the ligand surfaces (association: 120 s at 45 μL/min; dissociation: 600s-3600 s at 45 μL/min). Experiments were carried out at 25° C.

For test [2], the target named is T2, cyno FcRn/b2M (cyno, UniProt Q8SPV9 24-297; Q8SPW0 21-119, biotinylated).
T2 construct: bought recombinant biotinylated protein (Immunitrack ITF05 or ACRO FCM-C82W5); also called cFcRn; cFcRn/cb2M
T2 sequence (Q8SPV9 24-297 limits assumed, chain 1 of 2): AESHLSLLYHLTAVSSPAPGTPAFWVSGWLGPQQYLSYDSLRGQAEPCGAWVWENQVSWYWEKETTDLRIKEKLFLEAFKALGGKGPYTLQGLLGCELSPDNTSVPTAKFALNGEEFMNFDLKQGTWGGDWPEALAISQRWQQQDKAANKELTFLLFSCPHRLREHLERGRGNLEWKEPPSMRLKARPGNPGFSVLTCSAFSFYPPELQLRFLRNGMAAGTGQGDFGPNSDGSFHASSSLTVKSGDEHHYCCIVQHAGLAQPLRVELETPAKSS
T2 sequence (Q8SPW0 21-119 limits assumed, chain 2 of 2): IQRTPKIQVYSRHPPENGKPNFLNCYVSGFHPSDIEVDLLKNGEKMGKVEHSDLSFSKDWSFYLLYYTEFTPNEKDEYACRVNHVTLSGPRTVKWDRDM
In words: SPR pH 6.0.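 Further: surface plasmon resonance kinetics at 25 °C, diluted periplasmic extracts injected over immobilized ligand surfaces, 120 s association then 600–3600 s dissociation, running buffer containing 150 mM NaCl.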
Method: as §1

For test [3], the target named is T1, human FcRn/b2M. The test can be described thus: SPR pH 7.4.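 Further: surface plasmon resonance kinetics, periplasmic extracts diluted 1:10 flowed over immobilized target at 25 °C, 120 s association then 600–3600 s dissociation, buffer with 150 mM NaCl.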
Method: as §1
Test [4] deals with T2, cyno FcRn/b2M. The test can be described thus: SPR pH 7.4.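 Further: surface plasmon resonance kinetics, periplasmic extracts diluted 1:10 flowed over immobilized target at 25 °C, 120 s association then 600–3600 s dissociation, buffer with 150 mM NaCl.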
Method: as §1
Test [5] deals with T1, human FcRn/b2M. The test can be described thus: SPR off-rate; pH 7.4 vs pH 6.0.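 Further: surface plasmon resonance with diluted periplasmic extracts flowed over ligand surfaces, 120 s association and 600–3600 s dissociation at 25 °C, running buffer containing 150 mM NaCl.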
Method: as §1
Test [6] has as its target T2, cyno FcRn/b2M. In words: SPR off-rate; pH 7.4 vs pH 6.0.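 Further: surface plasmon resonance with diluted periplasmic extracts flowed over ligand surfaces, 120 s association and 600–3600 s dissociation at 25 °C, running buffer containing 150 mM NaCl.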
Method: as §1

T1 sequence (chain, as listed by the source limits assumed, chain 1 of 2): as the sequence (Q8SPV9 24-297 limits assumed, chain 1 of 2) above, with D39N, Q44E, S99G, G189S, N190S, M217L, T269S counted along it
T1 sequence (P61769 21-119 limits assumed, chain 2 of 2): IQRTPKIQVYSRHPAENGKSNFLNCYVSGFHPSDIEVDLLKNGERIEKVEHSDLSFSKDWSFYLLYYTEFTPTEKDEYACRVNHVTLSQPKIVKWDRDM

B1: T0263018B11 S101W (VHH, name in Kabat numbering)
VHH: EVQLVESGGGVVQPGGSLRLSCAASGFTFSSYAMYWVRQAPGKGLEWVSAISSGGGSTDYADSVKGRFTISRDNSKNTLYLQMNSLRPEDTALYYCAADTLYTSLTWYWYWGQGTLVTVSS
notes: FLAG3-His6 tagged
B1: the koff (in general, a measure of how fast the partners let go of each other) came out at 7e-05 s⁻¹ in test [1], 9.7e-05 s⁻¹ in test [2], 0.0012 s⁻¹ in test [3] and 0.00086 s⁻¹ in test [4]. The “kd ratio pH 7.4/6.0” value in test [5] was found to be 17; in test [6] it was 9.

B2: T0263018B11 T96A (VHH, name in Kabat numbering)
VHH: EVQLVESGGGVVQPGGSLRLSCAASGFTFSSYAMYWVRQAPGKGLEWVSAISSGGGSTDYADSVKGRFTISRDNSKNTLYLQMNSLRPEDTALYYCAADALYTSLTWYSYWGQGTLVTVSS
notes: FLAG3-His6 tagged
Turning to B2, the koff in test [1] stood at 0.0039 s⁻¹; in test [2], 0.0029 s⁻¹; in test [3] it was 0.14 s⁻¹; in test [4], 0.16 s⁻¹. Also, the results for the “kd ratio pH 7.4/6.0” value in test [5] and in test [6] were 36 and 55, respectively.

B3: T0263018B11 T57F (VHH, name in Kabat numbering)
VHH: EVQLVESGGGVVQPGGSLRLSCAASGFTFSSYAMYWVRQAPGKGLEWVSAISSGGGSFDYADSVKGRFTISRDNSKNTLYLQMNSLRPEDTALYYCAADTLYTSLTWYSYWGQGTLVTVSS
notes: FLAG3-His6 tagged
On to B3, for which the koff in test [1] was 0.00099 s⁻¹; in test [2] it was 0.00084 s⁻¹; in test [3] it was 0.033 s⁻¹; in test [4], 0.036 s⁻¹. The “kd ratio pH 7.4/6.0” value in test [5] was determined as 33; in test [6] it was 43.

B4: T0263018B11 T57I (VHH, name in Kabat numbering)
VHH: EVQLVESGGGVVQPGGSLRLSCAASGFTFSSYAMYWVRQAPGKGLEWVSAISSGGGSIDYADSVKGRFTISRDNSKNTLYLQMNSLRPEDTALYYCAADTLYTSLTWYSYWGQGTLVTVSS
notes: FLAG3-His6 tagged
As for B4, the koff in test [1] worked out at 0.0015 s⁻¹; in test [2], 0.0014 s⁻¹; in test [3], 0.049 s⁻¹; in test [4], 0.06 s⁻¹. Besides, the “kd ratio pH 7.4/6.0” value in test [5] is 33; in test [6] it was 43.

B5: T0263018B11 T28Y (VHH, name in Kabat numbering)
VHH: EVQLVESGGGVVQPGGSLRLSCAASGFYFSSYAMYWVRQAPGKGLEWVSAISSGGGSTDYADSVKGRFTISRDNSKNTLYLQMNSLRPEDTALYYCAADTLYTSLTWYSYWGQGTLVTVSS
notes: FLAG3-His6 tagged
On to B5, for which the koff in test [1] amounted to 0.0012 s⁻¹; in test [2] it was 0.00053 s⁻¹; in test [3], 0.071 s⁻¹; in test [4], 0.042 s⁻¹. Also, the “kd ratio pH 7.4/6.0” value in test [5] came to 59; in test [6], 79.

B6: T0263018B11 T57S (VHH, name in Kabat numbering)
VHH: EVQLVESGGGVVQPGGSLRLSCAASGFTFSSYAMYWVRQAPGKGLEWVSAISSGGGSSDYADSVKGRFTISRDNSKNTLYLQMNSLRPEDTALYYCAADTLYTSLTWYSYWGQGTLVTVSS
notes: FLAG3-His6 tagged
Regarding B6, the koff came out at 0.0011 s⁻¹ in test [1], 0.00071 s⁻¹ in test [2], 0.041 s⁻¹ in test [3] and 0.029 s⁻¹ in test [4]. The “kd ratio pH 7.4/6.0” value amounted to 39 in test [5] and 41 in test [6].

B7: T0263018B11 T28L (VHH, name in Kabat numbering)
VHH: EVQLVESGGGVVQPGGSLRLSCAASGFLFSSYAMYWVRQAPGKGLEWVSAISSGGGSTDYADSVKGRFTISRDNSKNTLYLQMNSLRPEDTALYYCAADTLYTSLTWYSYWGQGTLVTVSS
notes: FLAG3-His6 tagged
For the molecule B7, the koff in test [1] is 0.0018 s⁻¹; in test [2], 0.0013 s⁻¹; in test [3], 0.073 s⁻¹; in test [4], 0.062 s⁻¹. Moreover, the “kd ratio pH 7.4/6.0” value in test [5] came to 41; in test [6] it was 48.

B8: T0263018B11 T28N (VHH, name in Kabat numbering)
VHH: EVQLVESGGGVVQPGGSLRLSCAASGFNFSSYAMYWVRQAPGKGLEWVSAISSGGGSTDYADSVKGRFTISRDNSKNTLYLQMNSLRPEDTALYYCAADTLYTSLTWYSYWGQGTLVTVSS
notes: FLAG3-His6 tagged
As for B8, the koff in test [1] was 0.0019 s⁻¹; in test [2] it was 0.0009 s⁻¹; in test [3] it was 0.097 s⁻¹; in test [4], 0.069 s⁻¹. Also, the entries for the “kd ratio pH 7.4/6.0” value in test [5] and in test [6] were 51 and 77, respectively.

B9: T0263018B11 T28I (VHH, name in Kabat numbering)
VHH: EVQLVESGGGVVQPGGSLRLSCAASGFIFSSYAMYWVRQAPGKGLEWVSAISSGGGSTDYADSVKGRFTISRDNSKNTLYLQMNSLRPEDTALYYCAADTLYTSLTWYSYWGQGTLVTVSS
notes: FLAG3-His6 tagged
In the case of B9, the koff in test [1] was found to be 0.0011 s⁻¹; in test [2], 0.00044 s⁻¹; in test [3] it was 0.049 s⁻¹; in test [4] it was 0.033 s⁻¹. The results for the “kd ratio pH 7.4/6.0” value in test [5] and in test [6] were 46 and 75, respectively.

B10: T0263018B11 T28W (VHH, name in Kabat numbering)
VHH: EVQLVESGGGVVQPGGSLRLSCAASGFWFSSYAMYWVRQAPGKGLEWVSAISSGGGSTDYADSVKGRFTISRDNSKNTLYLQMNSLRPEDTALYYCAADTLYTSLTWYSYWGQGTLVTVSS
notes: FLAG3-His6 tagged
As for B10, the koff in test [1] is 0.00041 s⁻¹; in test [2] it was 0.00017 s⁻¹; in test [3], 0.024 s⁻¹; in test [4], 0.014 s⁻¹. Moreover, the “kd ratio pH 7.4/6.0” value in test [5] was found to be 59; in test [6], 80.

B11: T0263018B11 T57P (VHH, name in Kabat numbering)
VHH: EVQLVESGGGVVQPGGSLRLSCAASGFTFSSYAMYWVRQAPGKGLEWVSAISSGGGSPDYADSVKGRFTISRDNSKNTLYLQMNSLRPEDTALYYCAADTLYTSLTWYSYWGQGTLVTVSS
notes: FLAG3-His6 tagged
With B11, the koff in test [1] came out at 0.0015 s⁻¹; in test [2] it was 0.0013 s⁻¹; in test [3], 0.045 s⁻¹; in test [4] it was 0.054 s⁻¹. Moreover, the “kd ratio pH 7.4/6.0” value was determined as 30 in test [5] and 42 in test [6].

B12: T0263018B11 T57V (VHH, name in Kabat numbering)
VHH: EVQLVESGGGVVQPGGSLRLSCAASGFTFSSYAMYWVRQAPGKGLEWVSAISSGGGSVDYADSVKGRFTISRDNSKNTLYLQMNSLRPEDTALYYCAADTLYTSLTWYSYWGQGTLVTVSS
notes: FLAG3-His6 tagged
For the molecule B12, the koff in test [1] stood at 0.00077 s⁻¹; in test [2], 0.00064 s⁻¹; in test [3] it was 0.034 s⁻¹; in test [4], 0.027 s⁻¹. Moreover, the “kd ratio pH 7.4/6.0” value in test [5] turned out to be 44; in test [6] it was 42.

B13: T0263018B11 T28P (VHH, name in Kabat numbering)
VHH: EVQLVESGGGVVQPGGSLRLSCAASGFPFSSYAMYWVRQAPGKGLEWVSAISSGGGSTDYADSVKGRFTISRDNSKNTLYLQMNSLRPEDTALYYCAADTLYTSLTWYSYWGQGTLVTVSS
notes: FLAG3-His6 tagged
B13: the off-rate (koff) amounted to 0.0015 s⁻¹ in test [1], 0.0012 s⁻¹ in test [2], 0.039 s⁻¹ in test [3] and 0.033 s⁻¹ in test [4]. Also, the “kd ratio pH 7.4/6.0” value in test [5] worked out at 26; in test [6], 28.

B14: T0263018B11 T28V (VHH, name in Kabat numbering)
VHH: EVQLVESGGGVVQPGGSLRLSCAASGFVFSSYAMYWVRQAPGKGLEWVSAISSGGGSTDYADSVKGRFTISRDNSKNTLYLQMNSLRPEDTALYYCAADTLYTSLTWYSYWGQGTLVTVSS
notes: FLAG3-His6 tagged
As to B14, the koff was 0.0032 s⁻¹ in test [1], 0.0022 s⁻¹ in test [2], 0.12 s⁻¹ in test [3] and 0.092 s⁻¹ in test [4]. Besides, the figures for the “kd ratio pH 7.4/6.0” value in test [5] and in test [6] were 38 and 42, respectively.

B15: T0263018B11 T57W (VHH, name in Kabat numbering)
VHH: EVQLVESGGGVVQPGGSLRLSCAASGFTFSSYAMYWVRQAPGKGLEWVSAISSGGGSWDYADSVKGRFTISRDNSKNTLYLQMNSLRPEDTALYYCAADTLYTSLTWYSYWGQGTLVTVSS
notes: FLAG3-His6 tagged
In the case of B15, the koff was 0.0009 s⁻¹ in test [1], 0.00073 s⁻¹ in test [2], 0.033 s⁻¹ in test [3] and 0.028 s⁻¹ in test [4]. The “kd ratio pH 7.4/6.0” value in test [5] stood at 37; in test [6] it was 38.

B16: T0263018B11 T57L (VHH, name in Kabat numbering)
VHH: EVQLVESGGGVVQPGGSLRLSCAASGFTFSSYAMYWVRQAPGKGLEWVSAISSGGGSLDYADSVKGRFTISRDNSKNTLYLQMNSLRPEDTALYYCAADTLYTSLTWYSYWGQGTLVTVSS
notes: FLAG3-His6 tagged
For B16, the koff in test [1] was 0.0011 s⁻¹; in test [2], 0.0009 s⁻¹; in test [3], 0.04 s⁻¹; in test [4], 0.035 s⁻¹. The “kd ratio pH 7.4/6.0” value in test [5] was 37; in test [6], 39.

B17: T0263018B11 T57N (VHH, name in Kabat numbering)
VHH: EVQLVESGGGVVQPGGSLRLSCAASGFTFSSYAMYWVRQAPGKGLEWVSAISSGGGSNDYADSVKGRFTISRDNSKNTLYLQMNSLRPEDTALYYCAADTLYTSLTWYSYWGQGTLVTVSS
notes: FLAG3-His6 tagged
Regarding B17, the koff came to 0.00086 s⁻¹ in test [1], 0.00062 s⁻¹ in test [2], 0.037 s⁻¹ in test [3] and 0.03 s⁻¹ in test [4]. Further, the results for the “kd ratio pH 7.4/6.0” value in test [5] and in test [6] were 43 and 48, respectively.

B18: T0263018B11 T96F (VHH, name in Kabat numbering)
VHH: EVQLVESGGGVVQPGGSLRLSCAASGFTFSSYAMYWVRQAPGKGLEWVSAISSGGGSTDYADSVKGRFTISRDNSKNTLYLQMNSLRPEDTALYYCAADFLYTSLTWYSYWGQGTLVTVSS
notes: FLAG3-His6 tagged
Take B18: the koff was 0.0031 s⁻¹ in test [1], 0.0024 s⁻¹ in test [2], 0.16 s⁻¹ in test [3] and 0.2 s⁻¹ in test [4]. In addition, the results for the “kd ratio pH 7.4/6.0” value in test [5] and in test [6] were 52 and 83, respectively.

For the origin of these results see patent publication US20240132624A1 (Ablynx, published 2024).
